Measured values taken from article PMC2824085, “Identification of Novel Contributions to High-affinity Glycoprotein–Receptor Interactions using Engineered Ligands” (Journal of Molecular Biology, 2010).

Tests used:
soybean agglutinin = target: T1, soybean agglutinin (soybean, UniProt P05046 33-285, a single, uniform Man9GlcNAc2 oligosaccharide on each subunit); test: SPR; BiaCore 3000, CM5 chip; SBA or its glycopeptide amine-coupled, monomeric CRD of DC-SIGN flowed over; steady state, simple saturation model with linear background; 10 mM Hepes, 150 mM NaCl, 5 mM CaCl2, 0.005% P20, pH 7.4, 25 °C; settings: both partners purified
T1 construct: also called SBA; intact soybean agglutinin
T1 sequence (P05046 33-285): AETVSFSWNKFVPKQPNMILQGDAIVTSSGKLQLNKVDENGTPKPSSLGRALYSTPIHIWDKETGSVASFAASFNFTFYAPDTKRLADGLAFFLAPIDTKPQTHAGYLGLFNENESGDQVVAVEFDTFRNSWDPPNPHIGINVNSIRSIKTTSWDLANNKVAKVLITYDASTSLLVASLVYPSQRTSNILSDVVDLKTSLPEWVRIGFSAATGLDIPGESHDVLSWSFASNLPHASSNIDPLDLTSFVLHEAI

[1] = target: the molecule itself; test: cross-linking + SEC; chemical crosslinking and gel filtration of the extracellular domain of MGL expressed in bacteria

Row | Binder | Kd (soybean agglutinin) [µM] | stoichiometry N [1]
1 | monomeric carbohydrate-recognition domain (CRD) from DC-SIGN (domain or fragment, UniProt Q9NNX6 250-404, looked up, DC-SIGN, carbohydrate-recognition domain; it calls the CRD monomeric; also called monomeric CRD; dendritic cell-specific intercellular adhesion molecule 3-grabbing nonintegrin CRD) ERLCHPCPWEWTFFQGNCYFMSNSQRNWHDSITACKEVGAQLVVIKSAEEQNFLQLQSSRSNRFTWMGLSDLNQEGTWQWVDGSPLLPSFKQYWNRGEPNNVGEEDCAEFSGNGWNDDKCNLAKFWICKKSAASCSRDEEQFLSPAPATPNPPPA | 4 | 
2 | trimeric extracellular domain (ECD) of rat macrophage galactose lectin (MGL) (domain or fragment, extra alanine residue appended at the N-terminus; rat macrophage galactose lectin, extracellular domain from residue 59 to the C-terminus; also called extracellular domain of MGL; source: expressed in bacteria, T7 promoter system) AQNSQLRRDLETLRTTLDNTTSNTKAELQALASRGDSLQTGINSLKVEVDDHGQELQAGRGLSQKVASLESTVEKKEQTLRTDLSEITDRVQQLGKDLKTLTCQLASLKNNGSAVACCPLHWMEHEGSCYWFSQSGKPWPEADKYCQLENSNLVVVNSLAEQNFLQTHMGSVVTWIGLTDQNGPWRWVDGTDYEKGFTHWAPKQPDNWYGHGLGGGEDCAHFTSDGRWNDDVCQRPYRWVCEMKLAKDS |  | 3
